From publication PMC8567202, “Phosphoinositide-binding activity of Smad2 is essential for its function in TGF-β signaling” (The Journal of Biological Chemistry, 2021)

Tests used:
[1] = tested on: HeLa cells; assay: Nuclear translocation of EGFP-Smad2; format: cell-based; settings: for nuclear transport after TGF-β stimulation: HeLa cells with endogenous Smad2 suppressed, 10 ng/ml TGF-β for 1 h
Experimental: Two separate gels were used to accommodate all mutants. An empty vector transfection (vehicle) was used for a negative control for each gel. Glyceraldehyde 3-phosphate dehydrogenase (GAPDH) was used as a gel loading control. Data in A and B are quantified in Fig. S3A. C, TGF-β stimulated (10 ng/ml for 1 h) nuclear translocation of mouse EGFP-WT, -K420A, -W422A, -E425K, -Y426A, and -R427A/R428A transfected into HeLa cells whose endogenous Smad2 was suppressed by siRNA. For Smad2-WT, the effect of PI(4,5)P2 depletion was measured. Arrows indicate nuclear accumulation of EGFP-WT and EGFP-E425K. Scale bars indicate 10 μm. D, quantification of (C). (Inuc/Icyto) was calculated from total nuclear and cytosolic fluorescence intensity values. Blank and black bars indicate values before and after TGF-β stimulation. Error bars indicate S.D. values from >3 measurements (n = 10). E, Smad2 transcriptional activity measured by the luciferase assay. Blank and black bars indicate values before and after TGF-β stimulation. Error bars indicate S.D. values from >3 measurements (n = 10).
The ratio of nuclear to cytoplasmic protein was calculated from the fluorescence intensity of nucleus (Inuc) and the cytoplasm (Fcyto) in cross-section images of cells using the line profile function of Image-Pro Plus software (Media Cybernetics). Briefly, at least five different lines were drawn across the cross-sectional image of each cell and the average Inuc and ICyto values were calculated along the lines. Typically, more than ten cell images were analyzed for each data set to determine the average and SD values.

[2] = tested on: TβRI; assay: Dual color single-molecule tracking, TβRI and EGFP-Smad2; format: cell-based; settings: HeLa cells with endogenous Smad2 suppressed, 10 ng/ml TGF-β
Experimental: Figure 4 Quantitative imaging analyses of spatiotemporal dynamics of Smad2.A, TIRF images of mouse EGFP-Smad2-WT transfected into HeLa cells whose endogenous Smad2 is suppressed by siRNA. Images were taken before and 5 min after TGF-β stimulation (10 ng/ml) with and without PI(4,5)P2 depletion. A pseudo-coloring scheme was used with orange and blue representing the highest and the lowest intensity, respectively. B, kinetics of TGF-β stimulated (10 ng/ml) PM localization of EGFP-Smad2-WT (blue), -K420A (green), and -W422A (orange) transfected into HeLa cells the endogenous Smad2 of which was suppressed by siRNA. For EGFP-Smad2-WT, the effect of PI(4,5)P2 depletion (black) and TβRI inhibition by SB-431542 (10 μM for 36 h) (red) were measured. Data points indicate average ±S.D. (n = 10 cells). C, spatially resolved PM PI(4,5)P2 concentration ([PI(4,5)P2]) profiles calculated from two-channel cross-sectional images of HeLa cells (before and 5 min after 10 ng/ml TGF-β stimulation and after PI(4,5)P2 depletion). Each cell is a representative of more than ten cells analyzed. Spatially averaged [PI(4,5)P2] values for each cell type are shown. The z-axis scale indicates [PI(4,5)P2] in mol%. A pseudo-coloring scheme with red and blue representing the highest (1.5 mol%) and the lowest (0 mol%) concentration, respectively, is used to illustrate the spatial [PI(4,5)P2] heterogeneity. Scale bars indicate 10 μm. D, dual color single-molecule tracking of EGFP-PLCδ-PH and SNAP-TMR-labeled TβRI at the PM of HeLa cells. Time courses of the half-life of colocalization for SNAP-TMR-labeled TβRI and EGFP-PLCδ-PH after 10 ng/ml TGF-β stimulation were determined with (orange) and without (blue) PI(4,5)P2 depletion. Data points indicate average ±S.D. (n = 10 cells). E, time courses of the half-life of colocalization for SNAP-TMR-labeled TβRI and EGFP-Smad2 determined by dual color single-molecule tracking analysis. Colocalization of TβRI with EGFP-Smad2-WT (blue), -K420A (green), -W422A (orange), E425K (red), Y426A (cyan), and -R427A/R428A (black) transfected into HeLa cells whose endogenous Smad2 was suppressed by siRNA is shown. For EGFP-Smad2-WT, the effect of PI(4,5)P2 depletion (purple) was measured. Data points indicate average ±S.D. (n = 10 cells). […] TEXT PRINTED IN THE PICTURE: (C) PI(4,5)P2: [PI(4,5)P2] = 1.05 ± 0.20 mol% (HeLa unstimulated); [PI(4,5)P2] = 1.00 ± 0.40 mol% (HeLa 5 min after TGFβ); [PI(4,5)P2] = 0.16 ± 0.08 mol% (HeLa After PI(4,5)P2 depletion) DOUBTS OF THE COPYIST ABOUT THIS PICTURE: Panel C: the printed values are measured membrane concentrations of PI(4,5)P2 in HeLa cells under three conditions, not an activity or property of a compound; it is uncertain whether they count as a result for a substance
Single-molecule imaging was performed using a custom-built total internal reflection fluorescence microscope as described previously. HeLa cells were plated on the 8-well chambered coverglass (Lab-Tek, Thermo Fisher Scientific) at the density of 1 × 10^5 for 24 h, EGFP-Smad2 or mutants and SNAP-tagged TβRI were cotransfected into cells using the jetPRIME system (Polyplus-transfection) according to the manufacturer's protocols. The transfected HeLa cells were serum starved for 16 h and subsequently labeled with SNAP-Cell tetramethylrhodamine (TMR)-Star (New England Biolabs). Labeled cells were washed to remove the free dye, stimulated with 10 ng/ml TGF-β, the two protein molecules were simultaneously tracked and analyzed as described. The images were spatially corrected following the algorithm described previously ([39]). All particle tracking, data analysis, and image processing were carried out with in-house programs written in MATLAB. Colocalization analysis of two molecules was performed with a fixed threshold criterion (i.e., <400 nm) for colocalization ([39]). The same size of PM surface was analyzed for each data. […]

B1: Smad2-W422A: W422A mutant of full-length Smad2; specific PI(4,5)P2 binding-compromised (protein)
chain: MSSILPFTPPVVKRLLGWKKSAGGSGGAGGGEQNGQEEKWCEKAVKSLVKKLKKTGRLDELEKAITTQNCNTKCVTIPSTCSEIWGLSTANTVDQWDTTGLYSFSEQTRSLDGRLQVSHRKGLPHVIYCRLWRWPDLHSHHELKAIENCEYAFNLKKDEVCVNPYHYQRVETPVLPPVLVPRHTEILTELPPLDDYTHSIPENTNFPAGIEPQSNYIPETPPPGYISEDGETSDQQLNQSMDTGSPAELSPTTLSPVNHSLDLQPVTYSEPAFWCSIAYYELNQRVGETFHASQPSLTVDGFTDPSNSERFCLGLLSNVNRNATVEMTRRHIGRGVRLYYIGGEVFAECLSDSAIFVQSPNCNQRYGWHPATVCKIPPGCNLKIFNNQEFAALLAQSVNQGFEAVYQLTRMCTIRMSFVKGAGAEYRRQTVTSTPCWIELHLNGPLQWLDKVLTQMGSPSVRCSSMS
modifications: left off: His6, N-terminal, state not stated
- nuclear transport after TGF-β stimulation [1]: did not show nuclear transport
- dynamic colocalization / dwell time with TβRI after TGF-β stimulation [2]: much reduced TGFβ-stimulated dynamic colocalization with TβRI

B2: Smad2-K420A: K420A mutant of full-length Smad2; predominantly TβRI binding-compromised (protein)
chain: MSSILPFTPPVVKRLLGWKKSAGGSGGAGGGEQNGQEEKWCEKAVKSLVKKLKKTGRLDELEKAITTQNCNTKCVTIPSTCSEIWGLSTANTVDQWDTTGLYSFSEQTRSLDGRLQVSHRKGLPHVIYCRLWRWPDLHSHHELKAIENCEYAFNLKKDEVCVNPYHYQRVETPVLPPVLVPRHTEILTELPPLDDYTHSIPENTNFPAGIEPQSNYIPETPPPGYISEDGETSDQQLNQSMDTGSPAELSPTTLSPVNHSLDLQPVTYSEPAFWCSIAYYELNQRVGETFHASQPSLTVDGFTDPSNSERFCLGLLSNVNRNATVEMTRRHIGRGVRLYYIGGEVFAECLSDSAIFVQSPNCNQRYGWHPATVCKIPPGCNLKIFNNQEFAALLAQSVNQGFEAVYQLTRMCTIRMSFVAGWGAEYRRQTVTSTPCWIELHLNGPLQWLDKVLTQMGSPSVRCSSMS
modifications: left off: His6, N-terminal, state not stated
- nuclear transport after TGF-β stimulation [1]: did not show nuclear transport
- dynamic colocalization / dwell time with TβRI after TGF-β stimulation [2]: little response to TGFβ stimulation

B3: Smad2-Y426A: Y426A mutant of full-length Smad2; specific PI(4,5)P2 binding-compromised (protein)
chain: MSSILPFTPPVVKRLLGWKKSAGGSGGAGGGEQNGQEEKWCEKAVKSLVKKLKKTGRLDELEKAITTQNCNTKCVTIPSTCSEIWGLSTANTVDQWDTTGLYSFSEQTRSLDGRLQVSHRKGLPHVIYCRLWRWPDLHSHHELKAIENCEYAFNLKKDEVCVNPYHYQRVETPVLPPVLVPRHTEILTELPPLDDYTHSIPENTNFPAGIEPQSNYIPETPPPGYISEDGETSDQQLNQSMDTGSPAELSPTTLSPVNHSLDLQPVTYSEPAFWCSIAYYELNQRVGETFHASQPSLTVDGFTDPSNSERFCLGLLSNVNRNATVEMTRRHIGRGVRLYYIGGEVFAECLSDSAIFVQSPNCNQRYGWHPATVCKIPPGCNLKIFNNQEFAALLAQSVNQGFEAVYQLTRMCTIRMSFVKGWGAEARRQTVTSTPCWIELHLNGPLQWLDKVLTQMGSPSVRCSSMS
modifications: left off: His6, N-terminal, state not stated
- nuclear transport after TGF-β stimulation [1]: did not show nuclear transport
- dynamic colocalization / dwell time with TβRI after TGF-β stimulation [2]: much reduced TGFβ-stimulated dynamic colocalization with TβRI

B4: Smad2- R427A/R428A: double mutant of full-length Smad2; PI(4,5)P2 and TβRI binding-compromised (protein)
chain: MSSILPFTPPVVKRLLGWKKSAGGSGGAGGGEQNGQEEKWCEKAVKSLVKKLKKTGRLDELEKAITTQNCNTKCVTIPSTCSEIWGLSTANTVDQWDTTGLYSFSEQTRSLDGRLQVSHRKGLPHVIYCRLWRWPDLHSHHELKAIENCEYAFNLKKDEVCVNPYHYQRVETPVLPPVLVPRHTEILTELPPLDDYTHSIPENTNFPAGIEPQSNYIPETPPPGYISEDGETSDQQLNQSMDTGSPAELSPTTLSPVNHSLDLQPVTYSEPAFWCSIAYYELNQRVGETFHASQPSLTVDGFTDPSNSERFCLGLLSNVNRNATVEMTRRHIGRGVRLYYIGGEVFAECLSDSAIFVQSPNCNQRYGWHPATVCKIPPGCNLKIFNNQEFAALLAQSVNQGFEAVYQLTRMCTIRMSFVKGWGAEYAAQTVTSTPCWIELHLNGPLQWLDKVLTQMGSPSVRCSSMS
modifications: left off: His6, N-terminal, state not stated
- nuclear transport after TGF-β stimulation [1]: did not show nuclear transport
- dynamic colocalization / dwell time with TβRI after TGF-β stimulation [2]: low response to TGFβ stimulation

B5: Smad2 WT: bacterially expressed full-length Smad2 wild-type (protein)
chain: MSSILPFTPPVVKRLLGWKKSAGGSGGAGGGEQNGQEEKWCEKAVKSLVKKLKKTGRLDELEKAITTQNCNTKCVTIPSTCSEIWGLSTANTVDQWDTTGLYSFSEQTRSLDGRLQVSHRKGLPHVIYCRLWRWPDLHSHHELKAIENCEYAFNLKKDEVCVNPYHYQRVETPVLPPVLVPRHTEILTELPPLDDYTHSIPENTNFPAGIEPQSNYIPETPPPGYISEDGETSDQQLNQSMDTGSPAELSPTTLSPVNHSLDLQPVTYSEPAFWCSIAYYELNQRVGETFHASQPSLTVDGFTDPSNSERFCLGLLSNVNRNATVEMTRRHIGRGVRLYYIGGEVFAECLSDSAIFVQSPNCNQRYGWHPATVCKIPPGCNLKIFNNQEFAALLAQSVNQGFEAVYQLTRMCTIRMSFVKGWGAEYRRQTVTSTPCWIELHLNGPLQWLDKVLTQMGSPSVRCSSMS
modifications: left off: His6, N-terminal, state not stated
notes: bacterially expressed full-length Smad2 wild-type
- nuclear transport after PI(4,5)P2 depletion ([1]; HeLa cells, PI(4,5)P2 depletion, TGF-β 10 ng/ml for 1 h): abrogated the nuclear transport of Smad2 WT
